# From the nanobody polyreactivity screen of Harvey et al. (2022)
# Assay: yeast display, Sf9 membrane polyspecificity reagent, FACS + sequencing; frameworks hold sequencing errors
# Method in brief: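 Using colony PCR, genes from sorted yeast display clones were amplified, then sequenced on MiSeq at 2 × 250 and filtered by CDR length. The clones had been stained with 10% biotinylated, detergent-solubilized Sf9 membrane reagent for 1 hour at 4 °C and sorted by FACS into low and high (top ~1%) gates on anti-HA and streptavidin fluorescence. Polyreactivity labels come from the gate of origin.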
row,Sequence,polyreactivity (PSR sort gate)
1,QVQLVESGGGLVQAGGSLRLSCAASGRIFRNYAMGWYRQAPGKERELVAAISGNGGNTYYADSVKGRFTISRDNAKNTVYLQMNSLKPEDTAVYYCNAYHWLYSYRYSRTYDYWGQGTQVTVSS,high polyreactivity
2,QVQLVESGGGLVQAGGSLRLSCAASGRIFRPYAMGWYRQAPGKEREFVAAITQSGGITSYADSVKGRFTISRDNAKNTVYLQMNRLKPEDTAVYFCATTSRYTRSHYDWYDYWGQGTQVTVSS,low polyreactivity
3,QVQLVESGGGLVQAGGSLRLSCAASGRIFRPYAMGWYRQAPGKEREFVATIRFTTGRTYYADSVKGRFTISRDNAKNTVYLQMNSLKPEDTAVSYFAADFAFVNYAKISYTTHDYWGQGTQVTVSS,high polyreactivity
4,QVQLVESGGGLVQAGGSLRLSCAASGRIFRPYAMGWYRQAPGKERELVARINGSGGSTYYADSVKGRFTISRDTAKNTVYFQMNSLKPEDTAVYYCNVRRIIRYLGYTHTKISWLDYWGQGTQVTVSS,high polyreactivity
5,QVQLVESGGGLVQAGGSLRLSCAASGRIFRQNVMGWYRQAPGKERELVAGISRSGSGTRYADSVKGRFTISRDNAKNTVYLQMNSLKPEDTAVYYCNTLVPFSTWRYGYWGQGTQVTVSS,high polyreactivity
6,QVQLVESGGGLVQAGGSLRLSCAASGRIFRQYTMGWNRQAPGKERELVAAITGTRGSTYYADSVKGRFTISRDNAKNTVYLQMNSLKPVDTAVYSCDADYSARYGYWGQGTQVTVSS,high polyreactivity
7,QVQLVESGGGLVQAGGSLRLSCAASGRIFRRNAMGWYRPAPGKERELVAGITWSGGTTYYADSVKGRFTISRDNAKNTVYLQMNSLKPEDTAVYYCNAGRSKWLSRYDYWGQGTQVTVSS,high polyreactivity
8,QVQLVESGGGLVQAGGSLRLSCAASGRIFRRNAMGWYRQAPGKEREFVAAITSSGDSTNYADSVKGRFTISRDNAKNTVYLQMNSLKPEDTAVYYCAADWARSALQGFYYWGQGTQVTVSS,low polyreactivity
9,QVQLVESGGGLVQAGGSLRLSCAASGRIFRRNAMGWYRQAPGKEREFVATITSGGSTFYADSVKGRFTISRDNAKNTVYLQMNSLKPEDTAVYYCAAPSYNTPFHTPNYSWGQGTQVTVSS,low polyreactivity
10,QVQLVESGGGLVQAGGSLRLSCAASGRIFRRNAMGWYRQAPGKERELVAAITSSGGNTYYADSVKGRFTISRDNAKNTVYLQMNSLKPEDTAVYYCAAELRPYITYDGPRKKFYYWGQGTQVTVSS,high polyreactivity
11,QVQLVESGGGLVQAGGSLRLSCAASGRIFRRNTMGWSRPAPGTERELVAAITSRGGSTYYADSVKGRFTISRDNAKNTVYLQMNSLKPADTAVYYCNTRVVPEIYDYWGQGTQVTVSS,high polyreactivity
12,QVQLVESGGGLVQAGGSLRLSCAASGRIFRRYAMGCYIQAPGKERELVAGITGSGTSTYYADSVKGRFTISRDNAKNTVYLQMNSLKPEDTAVYYCAADRGRGYRYNYWGQGTQVTVSS,high polyreactivity
13,QVQLVESGGGLVQAGGSLRLSCAASGRIFRRYAMGWYRQAPGKERELVAAISSRGGSTYYADSVKGRFTISRDNAKNTVYLQMNSLKPEDTAVYYCNADVSASEYDYWGQGTQVTVSS,high polyreactivity
14,QVQLVESGGGLVQAGGSLRLSCAASGRIFRRYAMGWYRQAPGKERELVAAITRSGGSTYYADSVKGRFTISRDNAKNTVYLQMNSLKPEDTAVYYCNAPSSLGTDYDYWGQGTQVTVSS,high polyreactivity
15,QVQLVESGGGLVQAGGSLRLSCAASGRIFRRYAMGWYRQAPGKERELVASISSGGSTNYADSVNGRFTISRDNAKNTVYLQMNSLKPEDTAVYYCAASYPSIYYYRYDYWGKGTQVTVSS,high polyreactivity
16,QVQLVESGGGLVQAGGSLRLSCAASGRIFRRYAMGWYRQAPGKERELVATISRGGSNTSYADSVKGRFTISRDNAKNTVYLQMNSLKPEDSAVYYCAKGSVRYYVGFDYWGQGTQVTVSS,high polyreactivity
17,QVQLVESGGGLVQAGGSLRLSCAASGRIFRRYARGWYRQAPGKERELVATISRGGSNTSYADSVKGRFTISRDNAKNTVYLQMNSLKPEDTAVYYCAKGSVRYYVGYDYWGQGTQVSVSS,high polyreactivity
